The target of the data set is DNA polymerase gamma catalytic subunit p140, Exo- R964C (Homo sapiens, UniProt P54098 26-1239, D198A;E200A;R964C). Description: EMSA. On the technique in general: Mobility shift assays separate free from complexed probe on a gel.
DNA polymerase gamma catalytic subunit p140, Exo- R964C, sequence (P54098 26-1239 D198A/E200A/R964C): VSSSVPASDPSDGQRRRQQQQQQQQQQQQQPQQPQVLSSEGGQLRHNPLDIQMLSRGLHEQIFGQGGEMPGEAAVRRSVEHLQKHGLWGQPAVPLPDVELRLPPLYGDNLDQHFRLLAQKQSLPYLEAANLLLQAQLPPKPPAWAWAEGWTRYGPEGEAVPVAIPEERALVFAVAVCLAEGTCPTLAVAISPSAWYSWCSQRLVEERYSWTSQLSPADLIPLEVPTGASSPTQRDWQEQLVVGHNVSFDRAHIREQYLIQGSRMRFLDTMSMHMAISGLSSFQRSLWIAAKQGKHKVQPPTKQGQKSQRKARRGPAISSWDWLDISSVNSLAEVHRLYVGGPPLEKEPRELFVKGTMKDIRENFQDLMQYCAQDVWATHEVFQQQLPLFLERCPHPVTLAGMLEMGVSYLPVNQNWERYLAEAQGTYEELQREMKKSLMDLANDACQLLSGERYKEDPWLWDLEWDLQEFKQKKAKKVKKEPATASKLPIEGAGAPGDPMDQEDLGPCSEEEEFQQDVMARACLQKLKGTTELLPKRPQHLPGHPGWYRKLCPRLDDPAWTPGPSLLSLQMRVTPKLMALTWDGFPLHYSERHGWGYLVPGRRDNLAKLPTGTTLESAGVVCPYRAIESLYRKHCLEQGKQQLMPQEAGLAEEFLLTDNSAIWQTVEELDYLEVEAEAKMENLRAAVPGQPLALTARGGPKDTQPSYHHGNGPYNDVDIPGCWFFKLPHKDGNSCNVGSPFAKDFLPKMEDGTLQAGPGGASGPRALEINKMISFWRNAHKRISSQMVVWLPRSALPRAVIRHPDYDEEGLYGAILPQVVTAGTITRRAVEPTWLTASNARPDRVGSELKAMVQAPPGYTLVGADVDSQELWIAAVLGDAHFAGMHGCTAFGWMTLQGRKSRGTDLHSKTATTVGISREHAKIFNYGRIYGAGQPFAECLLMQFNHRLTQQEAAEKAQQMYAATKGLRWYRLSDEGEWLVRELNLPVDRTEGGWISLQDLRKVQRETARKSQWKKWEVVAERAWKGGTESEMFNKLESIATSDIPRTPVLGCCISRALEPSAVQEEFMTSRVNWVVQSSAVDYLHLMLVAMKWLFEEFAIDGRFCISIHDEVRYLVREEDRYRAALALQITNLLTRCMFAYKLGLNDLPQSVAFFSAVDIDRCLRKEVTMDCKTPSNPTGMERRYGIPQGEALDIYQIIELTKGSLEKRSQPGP

B1: 38-mer/34-mer primer-template (dsDNA)
DNA 1: TTATCGCACCTACGTTCAATATTACAGGCGAACATACT
DNA 2: GTATGTTCGCCTGTAATATTGAACGTAGGTGCGA
A word on the Kd: it is the free concentration of one partner at which half of the binding sites on the other are occupied at equilibrium, for simple one-to-one binding. A low value points to tighter binding. Regarding B1, binding was put at a Kd of 0.075 ± 0.004 µM.

The values are drawn from paper PMC2901396.
